Biological target: NaV1.5 C-terminal domain (CTD), purified recombinant (UniProt Q14524 1773-1940)
Assay: ITC

Sequence of NaV1.5 C-terminal domain (CTD), purified recombinant (Q14524 1773-1940): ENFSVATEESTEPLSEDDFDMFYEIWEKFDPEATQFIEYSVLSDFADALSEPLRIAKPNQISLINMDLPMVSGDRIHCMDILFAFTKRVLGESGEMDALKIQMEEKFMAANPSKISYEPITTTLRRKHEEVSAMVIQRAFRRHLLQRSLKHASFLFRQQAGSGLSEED

B1: Q7R-FGF12 (human FGF12-B with Q7R), purified recombinant (natural protein, UniProt P61328-2 1-181, looked up)
chain: MESKEPRLKGIVTRLFSQQGYFLQMHPDGTIDGTKDENSDYTLFNLIPVGLRVVAIQGVKASLYVAMNGEGYLYSSDVFTPECKFKESVFENYYVIYSSTLYRQQESGRAWFLGLNKEGQIMKGNRVKKTKPSSHFVPKPIEVCMYREPSLHEIGEKQGRSRKSSGTPTMNGGKVVNQDST
With B1 the “fold reduction in binding affinity against WT-FGF12” value was 2 fold.
